One series has as its target T1, TrSqrF; SqrF WT (Thiocapsa roseopersicina, UniProt A0A1Z2RRG1).
T1 sequence (A0A1Z2RRG1 1-375): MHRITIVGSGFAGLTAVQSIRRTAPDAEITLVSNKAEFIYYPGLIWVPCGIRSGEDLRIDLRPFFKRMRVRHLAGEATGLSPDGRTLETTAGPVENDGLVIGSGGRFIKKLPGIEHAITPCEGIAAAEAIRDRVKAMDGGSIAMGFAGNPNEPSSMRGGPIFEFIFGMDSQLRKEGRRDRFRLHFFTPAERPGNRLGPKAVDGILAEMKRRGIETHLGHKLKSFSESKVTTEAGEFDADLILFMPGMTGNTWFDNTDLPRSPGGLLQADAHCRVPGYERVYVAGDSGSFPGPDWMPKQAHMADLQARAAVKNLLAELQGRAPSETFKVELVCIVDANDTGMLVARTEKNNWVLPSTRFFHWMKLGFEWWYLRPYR
As to the kind of experiment: UV-visible absorption of purified protein; in-gel FAD fluorescence. Type of series: binding. To be noted: co-purified cofactor.

Substrate in series [1]: CCCCCCCCCCC1=C(C)C(=O)C(OC)=C(OC)C1=O
The series is described as follows: purified protein. Type of series: biochemical, Thiocapsa roseopersicina. To be noted: 200 µM sulfide, 50 mM Tris-HCl pH 8.0, 25 °C, anaerobic.

Substrate in series [2]: CC1=C(C)C(=O)C(C)=C(C)C1=O
The series is described as follows: purified protein. The format is biochemical, Thiocapsa roseopersicina. The settings on record: 200 µM sulfide, 50 mM Tris-HCl pH 8.0, 25 °C, anaerobic.

Turning to `Cc1cc2nc3c(=O)[nH]c(=O)nc-3n(C[C@H](O)[C@H](O)[C@H](O)COP(=O)(O)OP(=O)(O)OC[C@H]3O[C@@H](n4cnc5c(N)ncnc54)[C@H](O)[C@@H]3O)c2cc1C` [FAD, flavin adenine dinucleotide], at TrSqrF; SqrF WT, the “UV-visible absorption of purified protein; in-gel FAD fluorescence” value is recorded as “Absorption maxima at these wavelengths indicated that all TrSqrF variants contained the FAD cofactor”.

B1: SqrF CTD (Thiocapsa roseopersicina) (protein)
chain: MHRITIVGSGFAGLTAVQSIRRTAPDAEITLVSNKAEFIYYPGLIWVPCGIRSGEDLRIDLRPFFKRMRVRHLAGEATGLSPDGRTLETTAGPVENDGLVIGSGGRFIKKLPGIEHAITPCEGIAAAEAIRDRVKAMDGGSIAMGFAGNPNEPSSMRGGPIFEFIFGMDSQLRKEGRRDRFRLHFFTPAERPGNRLGPKAVDGILAEMKRRGIETHLGHKLKSFSESKVTTEAGEFDADLILFMPGMTGNTWFDNTDLPRSPGGLLQADAHCRVPGYERVYVAGDSGSFPGPDWMPKQAHMADLQARAAVKNLLAELQGRAPSETFKVELVCIVDANDTGMLVARTEKNNWVLPST
notes: C-terminal alpha-helix deletion, stop codons after Thr356; N-terminal StrepII tag, expressed in T. roseopersicina FOQRON
Usually Km stands for the substrate concentration at which the rate is half of its maximum. As a reminder, the kcat is the maximal rate divided by the concentration of active sites. In general, kcat/Km refers to the second-order rate constant that governs catalysis at low substrate concentration. Consider B1, for which, in the series “purified protein [1]”, the Km is 18.99 ± 0.67 µM, the kcat is 4.9 ± 0.8 s⁻¹ and the kcat/Km was 268000 M⁻¹ s⁻¹. Moreover, in the series “purified protein [2]”, the Km was determined as 70.71 ± 44.78 µM, the kcat is 0.96 ± 0.24 s⁻¹ and the kcat/Km is 14000 M⁻¹ s⁻¹.

B2: TrSqrF; SqrF WT (Thiocapsa roseopersicina) (protein)
chain: MHRITIVGSGFAGLTAVQSIRRTAPDAEITLVSNKAEFIYYPGLIWVPCGIRSGEDLRIDLRPFFKRMRVRHLAGEATGLSPDGRTLETTAGPVENDGLVIGSGGRFIKKLPGIEHAITPCEGIAAAEAIRDRVKAMDGGSIAMGFAGNPNEPSSMRGGPIFEFIFGMDSQLRKEGRRDRFRLHFFTPAERPGNRLGPKAVDGILAEMKRRGIETHLGHKLKSFSESKVTTEAGEFDADLILFMPGMTGNTWFDNTDLPRSPGGLLQADAHCRVPGYERVYVAGDSGSFPGPDWMPKQAHMADLQARAAVKNLLAELQGRAPSETFKVELVCIVDANDTGMLVARTEKNNWVLPSTRFFHWMKLGFEWWYLRPYR
Turning to B2, in “purified protein [1]”, the Km turned out to be 24.47 ± 6.42 µM, the kcat is 8.37 ± 0.33 s⁻¹ and the kcat/Km amounted to 342000 M⁻¹ s⁻¹. In addition, in “purified protein [2]”, the Km stood at 27.39 ± 2.47 µM, the kcat came out at 1.25 ± 0.04 s⁻¹ and the kcat/Km was found to be 46000 M⁻¹ s⁻¹.

B3: TrSqrF; SqrF WT (Thiocapsa roseopersicina; V331F) (protein)
chain: MHRITIVGSGFAGLTAVQSIRRTAPDAEITLVSNKAEFIYYPGLIWVPCGIRSGEDLRIDLRPFFKRMRVRHLAGEATGLSPDGRTLETTAGPVENDGLVIGSGGRFIKKLPGIEHAITPCEGIAAAEAIRDRVKAMDGGSIAMGFAGNPNEPSSMRGGPIFEFIFGMDSQLRKEGRRDRFRLHFFTPAERPGNRLGPKAVDGILAEMKRRGIETHLGHKLKSFSESKVTTEAGEFDADLILFMPGMTGNTWFDNTDLPRSPGGLLQADAHCRVPGYERVYVAGDSGSFPGPDWMPKQAHMADLQARAAVKNLLAELQGRAPSETFKVELFCIVDANDTGMLVARTEKNNWVLPSTRFFHWMKLGFEWWYLRPYR
Regarding B3, in the series “purified protein [1]”, the Km is 12.33 ± 0.86 µM, the catalytic constant (kcat) was found to be 3.64 ± 1.06 s⁻¹ and the catalytic efficiency (kcat/Km) was 295000 M⁻¹ s⁻¹. Besides, in the series “purified protein [2]”, the Km is 40.23 ± 7.36 µM, the kcat was 0.72 ± 0.02 s⁻¹ and the kcat/Km is 18000 M⁻¹ s⁻¹.

B4: TrSqrF; SqrF WT (Thiocapsa roseopersicina; F366A) (protein)
chain: MHRITIVGSGFAGLTAVQSIRRTAPDAEITLVSNKAEFIYYPGLIWVPCGIRSGEDLRIDLRPFFKRMRVRHLAGEATGLSPDGRTLETTAGPVENDGLVIGSGGRFIKKLPGIEHAITPCEGIAAAEAIRDRVKAMDGGSIAMGFAGNPNEPSSMRGGPIFEFIFGMDSQLRKEGRRDRFRLHFFTPAERPGNRLGPKAVDGILAEMKRRGIETHLGHKLKSFSESKVTTEAGEFDADLILFMPGMTGNTWFDNTDLPRSPGGLLQADAHCRVPGYERVYVAGDSGSFPGPDWMPKQAHMADLQARAAVKNLLAELQGRAPSETFKVELVCIVDANDTGMLVARTEKNNWVLPSTRFFHWMKLGAEWWYLRPYR
In the case of B4, in the series “purified protein [1]”, the Km was 9.38 ± 1.97 µM, the catalytic constant (kcat) stood at 1.97 ± 0.28 s⁻¹ and the kcat/Km is 210000 M⁻¹ s⁻¹. Moreover, in “purified protein [2]”, the Km came to 46.19 ± 2.53 µM, the kcat was determined as 0.26 ± 0.01 s⁻¹ and the kcat/Km is 6000 M⁻¹ s⁻¹.

B5: TrSqrF; SqrF WT (Thiocapsa roseopersicina; V331A) (protein)
chain: MHRITIVGSGFAGLTAVQSIRRTAPDAEITLVSNKAEFIYYPGLIWVPCGIRSGEDLRIDLRPFFKRMRVRHLAGEATGLSPDGRTLETTAGPVENDGLVIGSGGRFIKKLPGIEHAITPCEGIAAAEAIRDRVKAMDGGSIAMGFAGNPNEPSSMRGGPIFEFIFGMDSQLRKEGRRDRFRLHFFTPAERPGNRLGPKAVDGILAEMKRRGIETHLGHKLKSFSESKVTTEAGEFDADLILFMPGMTGNTWFDNTDLPRSPGGLLQADAHCRVPGYERVYVAGDSGSFPGPDWMPKQAHMADLQARAAVKNLLAELQGRAPSETFKVELACIVDANDTGMLVARTEKNNWVLPSTRFFHWMKLGFEWWYLRPYR
B5: in “purified protein [1]”, the Michaelis-Menten constant (Km) was determined as 18.99 ± 6.10 µM, the kcat amounted to 2.47 ± 0.33 s⁻¹ and the kcat/Km worked out at 130000 M⁻¹ s⁻¹.

B6: TrSqrF; SqrF WT (Thiocapsa roseopersicina; F366Y) (protein)
chain: MHRITIVGSGFAGLTAVQSIRRTAPDAEITLVSNKAEFIYYPGLIWVPCGIRSGEDLRIDLRPFFKRMRVRHLAGEATGLSPDGRTLETTAGPVENDGLVIGSGGRFIKKLPGIEHAITPCEGIAAAEAIRDRVKAMDGGSIAMGFAGNPNEPSSMRGGPIFEFIFGMDSQLRKEGRRDRFRLHFFTPAERPGNRLGPKAVDGILAEMKRRGIETHLGHKLKSFSESKVTTEAGEFDADLILFMPGMTGNTWFDNTDLPRSPGGLLQADAHCRVPGYERVYVAGDSGSFPGPDWMPKQAHMADLQARAAVKNLLAELQGRAPSETFKVELVCIVDANDTGMLVARTEKNNWVLPSTRFFHWMKLGYEWWYLRPYR
Turning to B6, in “purified protein [1]”, the Km was 10.03 ± 1.39 µM, the kcat was found to be 3.17 ± 0.82 s⁻¹ and the specificity constant (kcat/Km) amounted to 316000 M⁻¹ s⁻¹. In “purified protein [2]”, the Km is 79.30 ± 14.68 µM, the kcat turned out to be 0.57 ± 0.08 s⁻¹ and the kcat/Km was determined as 7000 M⁻¹ s⁻¹.

B7: TrSqrF; SqrF WT (Thiocapsa roseopersicina; I333F) (protein)
chain: MHRITIVGSGFAGLTAVQSIRRTAPDAEITLVSNKAEFIYYPGLIWVPCGIRSGEDLRIDLRPFFKRMRVRHLAGEATGLSPDGRTLETTAGPVENDGLVIGSGGRFIKKLPGIEHAITPCEGIAAAEAIRDRVKAMDGGSIAMGFAGNPNEPSSMRGGPIFEFIFGMDSQLRKEGRRDRFRLHFFTPAERPGNRLGPKAVDGILAEMKRRGIETHLGHKLKSFSESKVTTEAGEFDADLILFMPGMTGNTWFDNTDLPRSPGGLLQADAHCRVPGYERVYVAGDSGSFPGPDWMPKQAHMADLQARAAVKNLLAELQGRAPSETFKVELVCFVDANDTGMLVARTEKNNWVLPSTRFFHWMKLGFEWWYLRPYR
For B7, in the series “purified protein [1]”, the Km came to 13.98 ± 7.20 µM, the kcat is 1.2 ± 0.48 s⁻¹ and the kcat/Km came to 86000 M⁻¹ s⁻¹. Also, in the series “purified protein [2]”, the Michaelis constant (Km) came to 102.7 ± 69.9 µM, the catalytic constant (kcat) was determined as 0.72 ± 0.21 s⁻¹ and the kcat/Km is 7000 M⁻¹ s⁻¹.

Source of the values: article PMC9666304, “Quinone binding site in a type VI sulfide:quinone oxidoreductase” (Applied Microbiology and Biotechnology, 2022).
